From paper PMC4699842, “Synthetic prions with novel strain-specified properties” (PLoS Pathogens, 2015)

Target: the molecule itself
Experiment: thioflavin-T fibrillization assay

B1: recombinant mouse prion protein residues 23-231 (recMoPrP(23–231)) (natural protein)
chain: not shown
notes: also called recPrP; rec full-length mouse (Mo) PrP
  binding result: binds
